From the RNAGym collection of RNA variant scans (doi:10.1073/pnas.2313332121)

B1: TPR t1 (parent)
chain: GACCAAUCUGCCCUCAGAGCUCGAGAACAUCUUCGGAUGCAGAGGAGGCAGGCUUCGGUGGCGCGAUAGCGCCAACGUCCUCAACCUCCAAUGCAUCCCACCACAUGAUGAUGCCUGAAGAGCCUUGGUUUUUUG

Variants of: B1
Assay: polymerase ribozyme fitness, log enrichment relative to wild type (log ratio); higher = more active; in vitro selection for triplet polymerase activity
Summary of the method: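 Mutant libraries were PCR-built and transcribed for each subunit of a heterodimeric triplet polymerase ribozyme and selected for one round in triplicate at −7 °C, frozen, before gel excision of extended constructs and streptavidin-bead capture. Input and output libraries were Illumina-sequenced, keeping genotypes with ≥10 input reads and ≥1 read per output. Fitness is a logarithmic ratio of genotype to wild-type enrichment, in base 2, using inverse-variance-weighted replicate averages.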

Row | Variant | polymerase ribozyme fitness (log ratio)
1 | C11G G120U | 1.37
2 | C11G G120A | 1.51
3 | C11U C86A C104U | -1.37
4 | C12A C34G G122U | -5.34
5 | C12A C15A A43G A50U G61U | -6.06
6 | C11U G52A C80U | -2.45
7 | C11U C12G C15U C70U | -1.83
8 | C12A C86A | -0.926
9 | C11U A29G C53U | -2.33
10 | C11U U54A | -0.542
11 | C12A C13A U55A G63U U131A | -2.53
12 | C11U A18C A29C C101A G110C | -7.19
13 | C11U A18C C73U G127A | -5.36
14 | C12A C22A C40U G58C C86A U112G | -5.73
15 | C11G C56U C76G U106A A119U | -1.85
16 | C11U C73U C114A C123U | -2.7
17 | C11G U126C | -0.774
18 | C11G U126A | -0.924
19 | C12A C15A | -3.39
20 | C11U U21A A27G A105G | -4.61
21 | C12A G51U G71U U133C | -4.34
22 | C11G G45U G51C G61A | -3.84
23 | C11U U129A | -2.36
24 | C12A C53U U78A U81G | -2.32

Row | Variant | polymerase ribozyme fitness (log ratio)
25 | C11G G23C U32C G61A C86U U133A | -5.64
26 | C12A C70U | -0.454
27 | C12A C70G | -2.78
28 | C11G G36A G47C G117A U129A | -4.45
29 | C12A A46U G47C C124G | -0.295
30 | C11U A43G | -2.11
31 | C11U C53U G110A U129A | -3.35
32 | C12A C15G C101U | -3.16
33 | C11G C62U C101G U131G | -3.31
34 | C12A G52A C73U A91G | -2.04
35 | C11G G42C G69U A111C | -0.0543
36 | C11G C73G | -0.268
37 | C11G C73U | 0.123
38 | C11U U106C | -0.678
39 | C11G C40U G63A | -1.18
40 | C11U | -0.381
41 | C12A C70G C89A G110A U129A | -6.66
42 | C12A C15U G52U G63A C86U G117C | -5.35
43 | C12A A26U G36A G48C C72U | -4.02
44 | C12A A100C A121C | 1.43
45 | C12A C62A C98A | -6.54
46 | C11U C70A A121C | 0.0688
47 | C11G G51U C62A G71A C89U C97U | -6.66
48 | C11G C13U C101G | -1.63

Row | Variant | polymerase ribozyme fitness (log ratio)
49 | C12A A24G A41C A43C A46G C53G | -4.67
50 | C11U C34A | -2.54
51 | C11U G19A G61A U131G | -3.33
52 | C11U G36U | -1.77
53 | C12A C73A | 1.15
54 | C11G C49A A74G A75U G77U | -0.693
55 | C11U A121G | 1.13
56 | C11G U96G | -0.325
57 | C11U C79G | -1.69
58 | C11G C34U C49A G61A C123U | -2.15
59 | C11G C40G G42U C73G U87A | -4.66
60 | C11U A41G C104A C123U U125C | -1.19
61 | C11G C13G A111C A121G | 0.62
62 | C11U U78C U106G | -2.03
63 | C11G C28G G58U | -2.76
64 | C12A G36C | -1.69
65 | C12A G36U | -1.6
66 | C11G C13A G117C U132A U134G | -2.05
67 | C11U G122A | -1.12
68 | C12A C20G A83G C85U A95G | -5.21
69 | C11G C13G A18U C49G | -3.53
70 | C12A C40A | -2.34
71 | C12A C64U U133G | -0.934
72 | C12A G19U G57U | -3.2

Row | Variant | polymerase ribozyme fitness (log ratio)
73 | C11G G44A G60A A121U | 1.14
74 | C12A C22U U78C A121U | -2.5
75 | C11G C49A G61A G120U | 2.28
76 | C12A C15A C70A C72A G110U | -6.17
77 | C11G C13U C104A A111U | -3.99
78 | C11U G71A | -1.53
79 | C11U C22G A111G G122U U129C | -6.1
80 | C12A A46U C72G C114U | -4.57
81 | C12A C28U C86U C88U C101A A111C | -7.09
82 | C11G U125A | -0.25
83 | C11U G45A G48A | -2.77
84 | C11U G35U G39U C56A G71U G122A | -6.34
85 | C11G C22G A41G G128C | -5.82
86 | C12A C53U | -0.724
87 | C11U C15U G61A U78A G93A | -2.54
88 | C11U A27U A103U G120C G122U | -5.67
89 | C11G U59A | 0.0952
90 | C11U C82A | -1.02
91 | C11U C15G U112A | -2.98
92 | C11U U21A A27G C70G A105G | -5.92
93 | C12A C22A A26C G120U | -4.36
94 | C11U G23A G110C U130G | -6.32
95 | C12A C62U G128U | -3.03
96 | C12A A68G A84C | -4.19

Row | Variant | polymerase ribozyme fitness (log ratio)
97 | C11U A37G U96G | -2.69
98 | C11G C56G | 0.087
99 | C11G G63A | -0.354
100 | C11G G63C | -0.406
101 | C11U A26U A46C C49G C72U C86G | -6.59
102 | C11U C12A A41C C56G | -2.42
103 | C11U C22A C124U | -3.19
104 | C11G C76U C99A U130G | -6.95
105 | C12A C40U A91C | -3.09
106 | C11U U14C U38G | -4.03
107 | C11G G42U A84U | -1.53
108 | C11U G52U C70A | -1.84
109 | C11G C80A G117C C123U | -7.43
110 | C12A C53U C73A | -0.585
111 | C12A C40U C82G U96C C97U | -6.18
112 | C12A A18C G77C A121U | -0.381
113 | C12A C15U G71U A121C G127U | 0.118
114 | C11U G39U C79U G93U | -2.7
115 | C11G C15G G63C A68U C80U C115G G127C G135C | -5.08
116 | C11U C53A C97U | -1.37
117 | C11G C123G | 0.989
118 | C11G C123U | 0.785
119 | C12A A75U A111C | 0.286
120 | C11G C73U C80U | -0.636

Row | Variant | polymerase ribozyme fitness (log ratio)
121 | C11U U96G | -1.1
122 | C11G C15A G61U U125G | -0.123
123 | C11G C28A C56U C124G | -3.7
124 | C11G C40G C70G C89U | -5.83
125 | C11U C89A | -2.85
126 | C11G C53G C114U G127C | -1.98
127 | C11U C15G G36C | -7.38
128 | C12A A26U A41C C82A A95G C101A G120A G127A | -5.86
129 | C11G G17A G58A U106A U129A | -5.54
130 | C11U A18G G19C A43G G63U | -4.05
131 | C11U C28G A83C C85U | -4.39
132 | C11U G44C | -1.47
133 | C11U G44A | -1.49
134 | C11G G61A C124A | 2.07
135 | C11G G45U | -2.69
136 | C11G C22G C53G C70U C82U | -4.01
137 | C11U G69A | -2.2
138 | C11U G69C | -1.87
139 | C11U C22G C31A C72G C99U C123A | -5.82
140 | C12A G17A A111U U116C | -6.09
141 | C11U C53U C94G C123G | -1.5
142 | C12A A50C C53U A74C | -0.606
143 | C12A C15U G69A G93U U109G | -6.39
144 | C12A A37U A105G G122A | -3.74

Row | Variant | polymerase ribozyme fitness (log ratio)
145 | C12A C49U G69U U109A U116A C123G | -5.67
146 | C11U C49U | -1.29
147 | C12A G57U G71U | -0.629
148 | C12A G17U A46G C80G A84G C115A | -4.53
149 | C11G G17A U81A C85U G117C | -4.91
150 | C11G C31G | -4.32
151 | C12A C56A C115U G120A C123A | -1.84
152 | C11G C12U G113A A118U | -3.33
153 | C11G G71U | 0.0897
154 | C11G G107U | -3.64
155 | C11G G19A U38G | -2.63
156 | C11U C34G C89U A105C U106A | -4.08
157 | C12A G44A A46G G48U | -3.1
158 | C11G C15G G47C U116C | -2.52
159 | C11U C20A U87A A91C A118U | -2.95
160 | C11U G113U | -2.7
161 | C12A A16U C56A | -3.74
162 | C12A G60C U106G | -2.28
163 | C11G C12G C73U C123G U125A | -2.92
164 | C11G G52U C56G C102U A103C | -6.01
165 | C11U G39U | -1.37
166 | C11U G71U C123A | 1.29
167 | C11G C49U G120C | 1.52
